The values below come from paper PMC6980713.

In the data set the target is T1, HMCES SRAP domain (SRAPd) (Homo sapiens, UniProt Q96FZ2 1-270).
T1 sequence: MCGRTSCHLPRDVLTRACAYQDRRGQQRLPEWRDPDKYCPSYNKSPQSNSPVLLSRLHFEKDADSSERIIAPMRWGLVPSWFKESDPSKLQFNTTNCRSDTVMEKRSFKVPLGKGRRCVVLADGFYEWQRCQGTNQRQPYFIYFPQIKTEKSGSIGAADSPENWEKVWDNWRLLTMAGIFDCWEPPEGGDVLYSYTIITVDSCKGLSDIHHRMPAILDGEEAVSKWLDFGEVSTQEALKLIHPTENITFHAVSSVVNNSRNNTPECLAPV
Kind of data set: X-ray crystallography.

B1: P5nt palindromic DNA (dsDNA)
DNA 1: CAACGTTGTTTTT
DNA 2: CAACGTTGTTTTT
Take B1: the binding result was “binds”.
